Experimental data as given in PMC10400579, “FDW028, a novel FUT8 inhibitor, impels lysosomal proteolysis of B7-H3 via chaperone-mediated autophagy pathway and exhibits potent efficacy against metastatic colorectal cancer” (Cell Death & Disease, 2023).

B1: B7-H3 (CD276): FDW028 (FUT8 inhibitor) (protein)
parent chain: MLRRRGSPGMGVHVGAALGALWFCLTGALEVQVPEDPVVALVGTDATLCCSFSPEPGFSLAQLNLIWQLTDTKQLVHSFAEGQDQGSAYANRTALFPDLLAQGNASLRLQRVRVADEGSFTCFVSIRDFGSAAVSLQVAAPYSKPSMTLEPNKDLRPGDTVTITCSSYQGYPEAEVFWQDGQGVPLTGNVTTSQMANEQGLFDVHSILRVVLGANGTYSCLVRNPVLQQDAHSSVTITPQRSPTGAVEVQVPEDPVVALVGTDATLRCSFSPEPGFSLAQLNLIWQLTDTKQLVHSFTEGRDQGSAYANRTALFPDLLAQGNASLRLQRVRVADEGSFTCFVSIRDFGSAAVSLQVAAPYSKPSMTLEPNKDLRPGDTVTITCSSYRGYPEAEVFWQDGQGVPLTGNVTTSQMANEQGLFDVHSVLRVVLGANGTYSCLVRNPVLQQDAHGSVTITGQPMTFPPEALWVTVGLSVCLIALLVALAFVCWRKIKQSCEEENAGAEDQDGEGEGSKTALQPLKHSDSKEDDGQEIA
B2: B7-H3 (CD276): FUT8 siRNA (protein)
parent chain: B1 parent chain

Columns and labels:
[1] = immunofluorescence colocalization, Pearson's R; conditions: glycan changed form; control: control siRNA / untreated cells
[2] = immunoblot of B7-H3, SW480 and HCT-8; conditions: glycan changed form; control: control siRNA / untreated cells
[3] = cell surface biotinylation, membrane-fraction immunoblot; conditions: glycan changed form; control: control siRNA
[4] = CHX chase, B7-H3 remaining by immunoblot; conditions: glycan changed form; control: control siRNA

Row | Protein | localisation_or_trafficking [1] | expression_or_secretion [2] | expression_or_secretion [3] | degradation_or_half_life [4]
1 | B1 | increases | decreases | – | –
2 | B2 | increases | decreases | decreases | decreases
